# T1: PDZRN3_1, Q9UPQ7
# T1 sequence (Q9UPQ7 244-349, limits assumed, looked up): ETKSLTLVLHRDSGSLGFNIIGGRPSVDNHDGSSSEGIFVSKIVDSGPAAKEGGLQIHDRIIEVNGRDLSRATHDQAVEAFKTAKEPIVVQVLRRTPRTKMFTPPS
# T2: LIN7B, Q9HAP6
# T2 sequence (Q9HAP6 88-185, limits assumed, looked up): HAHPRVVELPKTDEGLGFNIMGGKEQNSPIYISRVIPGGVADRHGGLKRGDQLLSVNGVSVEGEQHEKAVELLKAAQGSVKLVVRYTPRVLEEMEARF
# T3: DFNB31_1, Q9P202
# T3 sequence (Q9P202 135-233, limits assumed, looked up): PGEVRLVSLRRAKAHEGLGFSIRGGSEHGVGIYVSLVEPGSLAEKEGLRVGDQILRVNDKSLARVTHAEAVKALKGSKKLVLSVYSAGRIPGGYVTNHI
# T4: DLG3_1, Q92796
# T4 sequence (Q92796 125-227, limits assumed, looked up): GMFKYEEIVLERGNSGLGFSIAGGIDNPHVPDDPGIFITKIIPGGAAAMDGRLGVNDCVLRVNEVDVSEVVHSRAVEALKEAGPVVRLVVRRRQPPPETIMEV
# T5: TIAM2, Q8IVF5
# T5 sequence (Q8IVF5 885-986, limits assumed, looked up): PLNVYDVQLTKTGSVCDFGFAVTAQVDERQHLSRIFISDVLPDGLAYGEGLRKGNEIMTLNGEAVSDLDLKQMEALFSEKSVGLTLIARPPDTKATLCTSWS
# T6: ARHGAP21, Q5T5U3
# T6 sequence (Q5T5U3 45-169, limits assumed, looked up): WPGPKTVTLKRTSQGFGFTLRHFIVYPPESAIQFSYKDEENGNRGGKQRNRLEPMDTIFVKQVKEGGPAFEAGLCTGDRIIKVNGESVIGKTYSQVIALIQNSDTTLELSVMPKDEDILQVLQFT
# T7: SHANK1, Q9Y566
# T7 sequence (Q9Y566 658-767, limits assumed, looked up): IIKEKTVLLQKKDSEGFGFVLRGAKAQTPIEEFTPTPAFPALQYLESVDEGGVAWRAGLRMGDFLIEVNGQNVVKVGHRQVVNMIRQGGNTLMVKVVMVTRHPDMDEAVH
# T8: RHPN1, Q8TCX5
# T8 sequence (Q8TCX5 508-602, limits assumed, looked up): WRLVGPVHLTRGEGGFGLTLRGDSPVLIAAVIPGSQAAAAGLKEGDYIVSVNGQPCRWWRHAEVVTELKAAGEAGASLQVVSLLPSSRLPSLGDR
# T9: MPDZ_12, O75970
# T9 sequence (O75970 1857-1958, limits assumed, looked up): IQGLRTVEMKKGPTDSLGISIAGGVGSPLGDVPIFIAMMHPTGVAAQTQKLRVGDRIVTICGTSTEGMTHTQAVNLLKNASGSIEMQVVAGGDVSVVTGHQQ
# T10: MPP7, Q5T2T1
# T10 sequence (Q5T2T1 134-230, limits assumed, looked up): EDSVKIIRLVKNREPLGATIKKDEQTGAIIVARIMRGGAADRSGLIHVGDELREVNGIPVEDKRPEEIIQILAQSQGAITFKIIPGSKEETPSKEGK
# T11: PDZD7_3, Q9H5P4
# T11 sequence (Q9H5P4 857-944, limits assumed, looked up): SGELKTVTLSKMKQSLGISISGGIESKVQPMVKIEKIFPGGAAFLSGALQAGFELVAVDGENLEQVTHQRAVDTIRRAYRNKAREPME
# T12: DLG3_3, Q92796
# T12 sequence (Q92796 374-475, limits assumed, looked up): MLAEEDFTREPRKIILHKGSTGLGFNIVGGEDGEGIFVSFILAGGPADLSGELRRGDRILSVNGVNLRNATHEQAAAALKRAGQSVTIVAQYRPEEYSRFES
# Key:
# Assay in all cases: holdup assay
# Design in all cases: key: below the threshold = too weak to quantify, mostly under pKd 3.1 to 4
# Conditions in all cases: plain residues with an end cap or a label only (N-terminal biotin on a linker: ado-ado)
# [1] = target: T1, PDZRN3_1, Q9UPQ7
# [2] = target: LNX1_1, Q8TBB1
# [3] = target: T2, LIN7B, Q9HAP6
# [4] = target: ARHGEF12, Q9NZN5-2
# [5] = target: T3, DFNB31_1, Q9P202
# [6] = target: T4, DLG3_1, Q92796
# [7] = target: HTRA2, O43464
# [8] = target: DLG1_1, Q12959
# [9] = target: T5, TIAM2, Q8IVF5
# [10] = target: MAST1, Q9Y2H9
# [11] = target: T6, ARHGAP21, Q5T5U3
# [12] = target: T7, SHANK1, Q9Y566
# [13] = target: T8, RHPN1, Q8TCX5
# [14] = target: SCRIB_2, Q14160
# [15] = target: IL16_1, Q14005
# [16] = target: T9, MPDZ_12, O75970
# [17] = target: T10, MPP7, Q5T2T1
# [18] = target: MAGI2_4, Q86UL8
# [19] = target: PTPN3, P26045
# [20] = target: T11, PDZD7_3, Q9H5P4
# [21] = target: PARD3_3, Q8TEW0
# [22] = target: T12, DLG3_3, Q92796
# [23] = target: LDB3, O75112
# [24] = target: SCRIB_3, Q14160
# [25] = target: GOPC, Q9HD26
# Sequence of SCRIB_2, Q14160 (Q14160 857-960): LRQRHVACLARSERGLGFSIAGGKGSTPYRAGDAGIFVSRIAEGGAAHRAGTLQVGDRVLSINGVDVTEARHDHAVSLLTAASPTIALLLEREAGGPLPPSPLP
# Sequence of SCRIB_3, Q14160 (Q14160 999-1103): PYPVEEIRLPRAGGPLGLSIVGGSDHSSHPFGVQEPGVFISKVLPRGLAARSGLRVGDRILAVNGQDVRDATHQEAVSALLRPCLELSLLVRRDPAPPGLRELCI
# Sequence of LNX1_1, Q8TBB1 (Q8TBB1 261-371): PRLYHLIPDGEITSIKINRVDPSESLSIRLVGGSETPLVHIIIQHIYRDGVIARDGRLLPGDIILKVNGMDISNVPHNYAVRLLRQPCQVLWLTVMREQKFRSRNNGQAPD
# Sequence of PARD3_3, Q8TEW0 (Q8TEW0 582-685): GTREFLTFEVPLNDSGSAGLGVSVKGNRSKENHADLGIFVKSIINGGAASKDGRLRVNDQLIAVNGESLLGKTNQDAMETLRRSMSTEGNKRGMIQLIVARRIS
# Sequence of MAST1, Q9Y2H9 (Q9Y2H9 962-1065): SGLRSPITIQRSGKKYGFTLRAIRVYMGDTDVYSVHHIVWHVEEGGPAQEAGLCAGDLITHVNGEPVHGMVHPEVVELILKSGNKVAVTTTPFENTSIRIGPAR
# Sequence of IL16_1, Q14005 (Q14005 210-306): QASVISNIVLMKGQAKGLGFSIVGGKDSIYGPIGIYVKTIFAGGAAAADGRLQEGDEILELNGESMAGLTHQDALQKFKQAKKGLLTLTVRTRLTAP
# Sequence of ARHGEF12, Q9NZN5-2 (Q9NZN5 other isoform, or with tags, fused parts or gaps): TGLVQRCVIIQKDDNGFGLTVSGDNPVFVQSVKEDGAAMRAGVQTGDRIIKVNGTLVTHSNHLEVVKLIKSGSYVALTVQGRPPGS
# Sequence of MAGI2_4, Q86UL8 (Q86UL8 772-865): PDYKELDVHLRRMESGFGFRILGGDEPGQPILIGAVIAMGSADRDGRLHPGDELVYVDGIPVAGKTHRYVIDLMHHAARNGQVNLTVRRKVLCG
# Sequence of HTRA2, O43464 (O43464 355-458): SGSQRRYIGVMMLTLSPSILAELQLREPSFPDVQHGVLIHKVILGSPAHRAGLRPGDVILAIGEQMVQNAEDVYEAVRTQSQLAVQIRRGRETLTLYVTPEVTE
# Sequence of PTPN3, P26045 (P26045 505-587): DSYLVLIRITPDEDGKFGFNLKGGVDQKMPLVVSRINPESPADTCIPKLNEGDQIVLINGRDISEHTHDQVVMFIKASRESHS
# Sequence of LDB3, O75112 (O75112 1-94): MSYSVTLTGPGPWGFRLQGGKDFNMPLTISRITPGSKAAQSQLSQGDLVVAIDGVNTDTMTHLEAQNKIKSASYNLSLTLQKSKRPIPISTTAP
pKd [1],pKd [2],pKd [3],pKd [4],pKd [5],pKd [6],pKd [7],pKd [8],pKd [9],pKd [10],pKd [11],pKd [12],pKd [13],pKd [14],pKd [15],pKd [16],pKd [17],pKd [18],pKd [19],pKd [20],Binder,other results
4.37,below the threshold,below the threshold,3.71,4,below the threshold,below the threshold,3.74,below the threshold,4.86,4.09,below the threshold,4.7,4.43,4.49,below the threshold,below the threshold,below the threshold,4.83,3.9,"PDSNPEESSV [SEMA4C, Q9C0C4]",pKd [21]: below the threshold; pKd [22]: 3.62; pKd [23]: below the threshold; pKd [24]: 4.45; pKd [25]: 3.67
4.47,below the threshold,below the threshold,4.36,4.02,below the threshold,below the threshold,below the threshold,below the threshold,4.97,4.02,4.14,4.43,4.05,below the threshold,below the threshold,below the threshold,below the threshold,4.78,4.66,"NPETRDETQL [KCNT1, Q5JUK3]",pKd [21]: 3.64; pKd [22]: below the threshold; pKd [23]: below the threshold; pKd [24]: 4.84; pKd [25]: 3.76

# More lines, now with the values behind:
Binder,pKd [1],pKd [2],pKd [3],pKd [4],pKd [5],pKd [6],pKd [7],pKd [8],pKd [9],pKd [10],pKd [11],pKd [12],pKd [13],pKd [14],pKd [15],pKd [16],pKd [17],pKd [18],pKd [19],pKd [20],other results
"SSGSTSSSRI [ADGRG1, Q9Y653]",below the threshold,3.66,3.82,4.04,4.27,3.54,below the threshold,below the threshold,3.82,4,below the threshold,4.31,3.93,below the threshold,below the threshold,below the threshold,below the threshold,3.77,3.86,4.3,pKd [21]: below the threshold; pKd [22]: 3.64; pKd [23]: below the threshold; pKd [24]: below the threshold; pKd [25]: 4
"QLAEIAESGL [ITK, Q08881]",3.89,3.9,below the threshold,below the threshold,3.97,3.56,below the threshold,below the threshold,below the threshold,4.54,3.87,3.76,3.83,3.6,3.48,3.53,below the threshold,below the threshold,4.89,below the threshold,pKd [21]: below the threshold; pKd [22]: 3.55; pKd [23]: below the threshold; pKd [24]: 4.16; pKd [25]: 3.73
"PEEGKKQSQC [GAGE12J, A6NER3]",below the threshold,below the threshold,3.74,3.84,below the threshold,below the threshold,below the threshold,below the threshold,3.87,3.6,below the threshold,below the threshold,below the threshold,below the threshold,below the threshold,below the threshold,below the threshold,below the threshold,3.91,below the threshold,pKd [21]: below the threshold; pKd [22]: below the threshold; pKd [23]: below the threshold; pKd [24]: below the threshold; pKd [25]: below the threshold
"PKLMGVETVV [DUSP10, Q9Y6W6]",3.69,4.06,below the threshold,3.74,4.09,4.63,below the threshold,5.06,below the threshold,4.58,3.73,below the threshold,4.42,3.98,4.38,below the threshold,below the threshold,4.14,4.66,5.19,pKd [21]: 3.75; pKd [22]: 3.91; pKd [23]: below the threshold; pKd [24]: 4.44; pKd [25]: 4.25

# Source: paper PMC9482650, “Quantitative fragmentomics allow affinity mapping of interactomes” (Nature Communications, 2022)
